Measured values reported in the supplement of paper PMC7125110.
± gives the standard error. This sample holds only a part of the variants without activity.

B1: glmS ribozyme (parent)
chain: AUAAAAGCGCCAGAACUACAGAAAUGUAGUUGACGAGGAGGAGGUUUAUCGAAUUUUCGGCGGAUGCCUCCAAA

Variants of: B1
Assay: self-cleavage kobs at 2500 uM GlcN6P; higher = faster cleavage; RNA array
Details: with glucosamine-6-phosphate
Method in brief: (§1)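 Glucosamine-6-phosphate (40 μM to 10 mM) in HEPES/KCl/Mg(OAc)2 buffer was flowed over sequenced MiSeq chips, and tiles were imaged over ~14 h. Barcoded ribozyme variants there had been transcribed in situ by E. coli RNA polymerase and were tracked through a hybridised Cy3 probe at 37 °C. One- or two-exponential decay fits to per-tile medians, normalised to baseline and to non-cleaving reference variants, gave kobs. kcat and KM came from weighted Michaelis–Menten fits across concentrations.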

Row | Variant | self-cleavage kobs at 2500 uM GlcN6P [s⁻¹]
1 | G32U A33U G41U | < 1e-05
2 | C16G U31A C34A | < 1e-05
3 | A14C C34G G62U | < 1e-05
4 | G13U A36G G60A C61U | < 1e-05
5 | U30C C61U U65A | < 1e-05
6 | G41U U57G C70A | 0.000107 ± 1.9e-05
7 | U30G A42G U65G C67U | 0.000104 ± 3.7e-05
8 | G37C U47C C58A | < 1e-05
9 | C10U C11G U57A | < 1e-05
10 | G7A C10U G35U G43U | < 1e-05
11 | A48C C61U G66A | < 1e-05
12 | A6U G9A A42C | < 1e-05
13 | A15G U49G C50A G60C | < 1e-05
14 | A42C A48U G66C | < 1e-05
15 | A36U C58G C70U | 6.88e-05 ± 2.4e-05
16 | C34A G38U C50G | 9.01e-05 ± 3e-05
17 | G7U U30G A33U G44C | < 1e-05
18 | A15U G44A G51A A53U | < 1e-05
19 | A12U C16U G43C G62C C70U | < 1e-05
20 | A15G G44U U54C | 0.00016 ± 3.1e-05
21 | A14U G41U U54A | 0.000104 ± 3.2e-05

Row | Variant | self-cleavage kobs at 2500 uM GlcN6P [s⁻¹]
22 | A12G G43U A48C U69G | < 1e-05
23 | A39U G41C A52U | < 1e-05
24 | U30C U55A U69G | 7.73e-05 ± 1.4e-05
25 | U45G A48U U55C | 8.04e-05 ± 2.8e-05
26 | C10A C11U C70A | 0.000126 ± 4.3e-05
27 | A12C U55A C58A | 8.77e-05 ± 1.8e-05
28 | U55G C58G G60U | < 1e-05
29 | A6U G44A A48U G63A U65C | < 1e-05
30 | A12G A14G G32U A33U G51C | < 1e-05
31 | U30A A42C U45G U65G C70G | 0.000761 ± 0.00026
32 | A15U G40A A52C G66U | < 1e-05
33 | A6G G9C C70G | < 1e-05
34 | C8U U31A G43U U55A | < 1e-05
35 | C8G G13U A39U C68G | < 1e-05
36 | C10U G29U C61A C67G | 0.000121 ± 2.9e-05
37 | C8U A15U U31C A36G U46A A52U C58A C67U C70U | < 1e-05
38 | U30C U47A C70A | 8.14e-05 ± 3.8e-05
39 | A6U C10A C70A | 0.000332 ± 0.00011
40 | U47C U57C C71G | < 1e-05
41 | A33C C61A G62U | < 1e-05
42 | A64G U65C | 8.88e-05 ± 2.5e-05

Row | Variant | self-cleavage kobs at 2500 uM GlcN6P [s⁻¹]
43 | C10G A14C A48C C50U | < 1e-05
44 | U30A U49C G66C | < 1e-05
45 | C19A G32C | 4.68e-05 ± 1.6e-05
46 | A14G G29A G44A | 6.19e-05 ± 2.1e-05
47 | G32C U54C G63U | < 1e-05
48 | A12U A33U G40U | 3.71e-05 ± 1.4e-05
49 | G38U G40U A48U C68G | < 1e-05
50 | G44U U49C C61A | < 1e-05
51 | A15C G32A U69A | 0.000103 ± 3.2e-05
52 | G35U U45C G51C G59U | < 1e-05
53 | U46C G60U C70U | < 1e-05
54 | G38C A39U A53G U65C | < 1e-05
55 | A15U G29C C50U | < 1e-05
56 | G7A A39C U54G U57A C58U G66U | < 1e-05
57 | C11G U30C G37U | < 1e-05
58 | G7C C11U C34G U49G | < 1e-05
59 | A6G A36U A48U C50U | < 1e-05
60 | G13A U54G C68A | 7.33e-05 ± 2.7e-05
61 | A42G G44C C58A C68U | < 1e-05
62 | G7U G32A A48G U54A | < 1e-05
63 | U56G C58A C71A | 3.99e-05 ± 1.6e-05

Row | Variant | self-cleavage kobs at 2500 uM GlcN6P [s⁻¹]
64 | A14C U31C A36G G38C G41U G51U | < 1e-05
65 | C16A A39C A42U G51C C61G | < 1e-05
66 | G9C C34U A53U | < 1e-05
67 | G32U G37C G43U | < 1e-05
68 | C11G C50G C58A C61A | 0.000322 ± 0.00011
69 | G37A G44C | 4.54e-05 ± 1.3e-05
70 | A12G G51U U56G | < 1e-05
71 | A15G G44A U65A | 8e-05 ± 2e-05
72 | A36C A39U G40C A42G U46C U69G | < 1e-05
73 | A12G A15U C71G | 2.52e-05 ± 1.1e-05
74 | U30C G44U U45G U69G | < 1e-05
75 | A14G U45A U69A | 0.000801 ± 0.00024
76 | U30C G40A G43A C68A | < 1e-05
77 | A42U G43A G60U | < 1e-05
78 | C10U C11U A15C C34A | < 1e-05
79 | A12G G32U C34U A53U | < 1e-05
80 | G35U A48G C50G | 0.000328 ± 0.00011
81 | G38U A39G C58U G59U | < 1e-05
82 | C16A G43A C58U | < 1e-05

Variants of: B1
Assay: self-cleavage kobs at 10000 uM GlcN6P; higher = faster cleavage; RNA array
Details: with glucosamine-6-phosphate
Method in brief: as §1

Row | Variant | self-cleavage kobs at 10000 uM GlcN6P [s⁻¹]
83 | C10U C11G U57A | < 1e-05
84 | A42C A48U G66C | < 1e-05
85 | A64G U65C | 0.000113 ± 1.6e-05
